Results taken from doi:10.1101/2022.06.13.495963.

Legend:
Assay in all cases: ITC
[1] = biological target: B-Myb negative regulatory domain, C-terminal half, amino acids 510-600 (NRD^510-600) (human) (UniProt P10244)
[2] = biological target: NRD^510-600 T538A, not phosphorylated (NRD^T538A) (human) (UniProt P10244)
[3] = biological target: NRD^510-600 S577A, not phosphorylated (NRD^S577A) (human) (UniProt P10244)
Chain of NRD^510-600 S577A, not phosphorylated (NRD^S577A) (human) (P10244 510-600 S577A): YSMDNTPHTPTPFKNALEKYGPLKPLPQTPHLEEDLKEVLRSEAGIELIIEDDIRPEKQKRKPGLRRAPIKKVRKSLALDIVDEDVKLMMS

Chain of B-Myb negative regulatory domain, C-terminal half, amino acids 510-600 (NRD^510-600) (human) (P10244 510-600): as the sequence (P10244 510-600 S577A) above, with A68S counted along it
Chain of NRD^510-600 T538A, not phosphorylated (NRD^T538A) (human) (P10244 510-600 T538A): as the sequence (P10244 510-600 S577A) above, with T29A, A68S counted along it

Kd [1]: 4.9 µM | Kd [2]: 6.5 µM | Kd [3]: 3.2 µM
Substance: B-Myb DNA binding domain (B-Myb^34-183) (from UniProt P10244-1 34-183) (domain or fragment)
